For this experiment, the target named is cynomolgus TLR3 (cynomolgus, UniProt A0A2K5WT39). In words: cell-based or functional assay.

B1: mAb 15EVQ (antibody)
heavy: not shown
light: DIQMTQSPSSLSASVGDRVTITCRASQSIGLYLAWYQQKPGKAPKLLIYAASSLQSGVPSRFSGSGSGTDFTLTISSLQPEDFATYYCQQGNTLSYTFGQGTKVEIKRTVAAPSVFIFPPSDEQLKSGTASVVCLLNNFYPREAKVQWKVDNALQSGNSQESVTEQDSKDSTYSLSSTLTLSKADYEKHKVYACEVTHQGLSSPVTKSFNRGEC
Take B1: the “IC50, ISRE reporter gene assay” value is 1.74 µg/mL and the “IC50, NF-κB reporter gene assay” value was found to be 4.18 µg/mL.

For the origin of these results see patent publication US9932404B2 (Janssen Biotech, Inc., dated 2018).
